The source of these data is patent US20190062438A1 (CSL, published 2019).

Where a chain is given by its changes, count along the chain named. A value given as a limit tells only on which side of the number the result lay.

Sequences and labels used below:
T1: human CD131 (human, UniProt P32927 17-897)
T1 sequence: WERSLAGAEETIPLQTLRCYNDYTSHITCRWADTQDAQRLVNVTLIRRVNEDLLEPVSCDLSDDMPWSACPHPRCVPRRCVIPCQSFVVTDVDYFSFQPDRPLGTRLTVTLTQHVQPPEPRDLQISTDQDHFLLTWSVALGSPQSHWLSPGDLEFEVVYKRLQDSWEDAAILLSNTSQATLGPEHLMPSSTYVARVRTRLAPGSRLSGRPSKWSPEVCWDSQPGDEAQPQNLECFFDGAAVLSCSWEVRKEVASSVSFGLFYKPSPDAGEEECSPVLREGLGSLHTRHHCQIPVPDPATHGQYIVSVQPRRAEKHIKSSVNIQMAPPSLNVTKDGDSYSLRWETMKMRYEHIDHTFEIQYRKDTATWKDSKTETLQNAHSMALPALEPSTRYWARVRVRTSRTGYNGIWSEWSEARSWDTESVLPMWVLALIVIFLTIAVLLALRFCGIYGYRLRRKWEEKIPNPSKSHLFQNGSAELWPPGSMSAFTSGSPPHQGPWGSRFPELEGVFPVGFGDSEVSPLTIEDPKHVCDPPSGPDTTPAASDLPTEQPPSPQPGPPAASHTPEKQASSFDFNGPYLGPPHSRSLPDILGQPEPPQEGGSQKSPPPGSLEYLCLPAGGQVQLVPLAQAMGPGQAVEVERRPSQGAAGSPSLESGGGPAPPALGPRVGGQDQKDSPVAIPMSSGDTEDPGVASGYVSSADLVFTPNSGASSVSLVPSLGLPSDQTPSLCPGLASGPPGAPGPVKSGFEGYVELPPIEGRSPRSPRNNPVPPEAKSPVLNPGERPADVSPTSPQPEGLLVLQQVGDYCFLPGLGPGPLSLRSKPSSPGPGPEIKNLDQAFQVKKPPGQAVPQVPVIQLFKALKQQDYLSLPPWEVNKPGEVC

B1: 9A2-VR14 (antibody, V domains shown)
VH: EVQLLESGGGLVQPGGSLRLSCAASGFTFSHYHMLWVRQAPGKGLEWVSSIRSSGGFTYYADSVKGRFTISRDNSKNTLYLQMNSLRAEDTAVYYCARFYDSFFDIWGQGTMVTVSS
VL: DIQMTQSPSSVSASVGDRVTITCRASQGISSWLAWYQQKPGKAPKLLIYAASSLQSGVPSRFSGSGSGTDFTLTISSLQPEDFATYYCGKPVFDPITFGQGTRLEIKR
B2: 9A2-VR26 (antibody, V domains shown)
VH: B1 VH with S30I, H33R, M34V, L35H
VL: B1 VL with G89Q, K90Q, P91A, V92N, F93S, D94F
B3: 9A2-VR42 (antibody, V domains shown)
VH: B1 VH with R52G, S53G, S54D, G55I, G56R, F57Q
VL: B1 VL with G89Q, K90Q, P91A, V92N, F93S, D94F
B4: 9A2-VR31 (antibody, V domains shown)
VH: B1 VH with R52S, S53G, S54A, G55Q, G56W, F57S
VL: B1 VL with G89Q, K90Q, P91A, V92N, F93S, D94F
B5: 9A2-VR50 (antibody, V domains shown)
VH: B1 VH with D101S, S102D, F103H, D105A, I106P
VL: B1 VL with G89Q, K90Q, P91A, V92N, F93S, D94F
B6: 9A2-VR41 (antibody, V domains shown)
VH: B1 VH with R52N, S53G, S54K, G56W, F57T
VL: B1 VL with G89Q, K90Q, P91A, V92N, F93S, D94F
B7: 9A2-VR36 (antibody, V domains shown)
VH: B1 VH with R52G, S53G, S54D, G55K, G56R, F57Q
VL: B1 VL with G89Q, K90Q, P91A, V92N, F93S, D94F
B8: 9A2-VR27 (antibody, V domains shown)
VH: B1 VH with S30T, H33R, M34V, L35H
VL: B1 VL with G89Q, K90Q, P91A, V92N, F93S, D94F
B9: 9A2-VR47 (antibody, V domains shown)
VH: B1 VH with D101S, S102D, F103H, D105S, I106P
VL: B1 VL with G89Q, K90Q, P91A, V92N, F93S, D94F
B10: 9A2-VR45 (antibody, V domains shown)
VH: B1 VH with D101S, S102D, F103N
VL: B1 VL with G89Q, K90Q, P91A, V92N, F93S, D94F
B11: 9A2-VR48 (antibody, V domains shown)
VH: B1 VH with D101S, S102D, F103H, D105K, I106P
VL: B1 VL with G89Q, K90Q, P91A, V92N, F93S, D94F
B12: 9A2-VR43 (antibody, V domains shown)
VH: B1 VH with D101S, S102D, F103H
VL: B1 VL with G89Q, K90Q, P91A, V92N, F93S, D94F
B13: 9A2-VR28 (antibody, V domains shown)
VH: B1 VH with S30V, H33R, M34V, L35H
VL: B1 VL with G89Q, K90Q, P91A, V92N, F93S, D94F
B14: 9A2-VR40 (antibody, V domains shown)
VH: B1 VH with R52N, S53G, S54Y, G56I, F57Q
VL: B1 VL with G89Q, K90Q, P91A, V92N, F93S, D94F
B15: 9A2-VR2 (antibody, V domains shown)
VH: B1 VH
VL: DIQMTQSPSSVSASVGDRVTITCRASQGQRPFVSWYQQKPGKAPKLLIYAASSLQSGVPSRFSGSGSGTDFTLTISSLQPEDFATYYCQQANSFPITFGQGTRLEIKR
B16: 9A2-VR49 (antibody, V domains shown)
VH: B1 VH with D101S, S102D, F103H, D105N, I106P
VL: B1 VL with G89Q, K90Q, P91A, V92N, F93S, D94F
B17: 9A2-VR22 (antibody, V domains shown)
VH: B1 VH with S30Q, H31W, H33R, M34V, L35H
VL: B1 VL with G89Q, K90Q, P91A, V92N, F93S, D94F
B18: 9A2-VR23 (antibody, V domains shown)
VH: B1 VH with S30E, H31W, H33R, M34V, L35H
VL: B1 VL with G89Q, K90Q, P91A, V92N, F93S, D94F
B19: 9A2-VR44 (antibody, V domains shown)
VH: B1 VH with F103H
VL: B1 VL with G89Q, K90Q, P91A, V92N, F93S, D94F
B20: 9A2-VR21 (antibody, V domains shown)
VH: B1 VH with S30M, H33R, M34V, L35H
VL: B1 VL with G89Q, K90Q, P91A, V92N, F93S, D94F
B21: 9A2-VR34 (antibody, V domains shown)
VH: B1 VH with R52S, S53G, G55H, G56F, F57P
VL: B1 VL with G89Q, K90Q, P91A, V92N, F93S, D94F
B22: 9A2-VR16 (antibody, V domains shown)
VH: B1 VH
VL: B1 VL with K90I, F93L, D94G
B23: 9A2-VR37 (antibody, V domains shown)
VH: B1 VH with R52S, S53G, G55M, G56W, F57S
VL: B1 VL with G89Q, K90Q, P91A, V92N, F93S, D94F
B24: 9A2-VR1 (antibody, V domains shown)
VH: B1 VH
VL: B15 VL with Q29I, V33M, S34A
B25: 9A2-VR33 (antibody, V domains shown)
VH: B1 VH with R52N, S53G, G56W, F57T
VL: B1 VL with G89Q, K90Q, P91A, V92N, F93S, D94F
B26: 9A2-VR19 (antibody, V domains shown)
VH: B1 VH
VL: B1 VL with K90I, V92I, F93L, D94G
B27: 9A2-VR46 (antibody, V domains shown)
VH: B1 VH with D101S, S102D, F103H, D105R, I106E
VL: B1 VL with G89Q, K90Q, P91A, V92N, F93S, D94F
B28: 9A2-VR35 (antibody, V domains shown)
VH: B1 VH with R52N, S53G, S54F, G56R, F57N
VL: B1 VL with G89Q, K90Q, P91A, V92N, F93S, D94F
B29: 9A2-VR3 (antibody, V domains shown)
VH: B1 VH
VL: B15 VL with Q29L, S34N
B30: 9A2-VR4 (antibody, V domains shown)
VH: B1 VH
VL: B15 VL with Q29I, S34D
B31: 9A2-VR32 (antibody, V domains shown)
VH: B1 VH with R52S, S53G, G55V, G56R, F57S
VL: B1 VL with G89Q, K90Q, P91A, V92N, F93S, D94F
B32: 9A2-VR38 (antibody, V domains shown)
VH: B1 VH with R52N, S53G, S54M, G56A, F57T
VL: B1 VL with G89Q, K90Q, P91A, V92N, F93S, D94F
B33: 9A2-VR20 (antibody, V domains shown)
VH: B1 VH with S30N, H33R, M34V, L35H
VL: B1 VL with G89Q, K90Q, P91A, V92N, F93S, D94F

In the assay the target is T1, human CD131. The experiment in a line: cell-based or functional assay.
As to B1, the “IC50 GM-CSF, TF-1 proliferation” value was above 1 µM.
B2: the “IC50 GM-CSF, TF-1 proliferation” value worked out at 0.0046 µM and the “pStat5 IC50 GM-CSF, TF-1 bla reporter” value came out at 23.6 nM.
In the case of B3, the “IC50 GM-CSF, TF-1 proliferation” value is 0.0547 µM.
Consider B4, for which the “IC50 GM-CSF, TF-1 proliferation” value was 0.233 µM.
Regarding B5, the “IC50 GM-CSF, TF-1 proliferation” value came out at 0.0465 µM.
Same read-out and setting: the same measure for B6: 0.007 µM; for B7: 0.0381 µM.
On to B8, for which the “IC50 GM-CSF, TF-1 proliferation” value was found to be 0.0049 µM and the “pStat5 IC50 GM-CSF, TF-1 bla reporter” value amounted to 8.5 nM.
B9: the “IC50 GM-CSF, TF-1 proliferation” value is 0.0272 µM.
Turning to B10, the “IC50 GM-CSF, TF-1 proliferation” value was 0.0887 µM.
Still for that read-out and setting: the same measure for B11: 0.0117 µM; for B12: 0.0537 µM.
On the same count and under the same terms, the same measure for B13: 0.0479 µM.
Take B14: the “IC50 GM-CSF, TF-1 proliferation” value worked out at 0.0057 µM.
On to B15, for which the “IC50 GM-CSF, TF-1 proliferation” value was found to be 0.444 µM.
As for B16, the “IC50 GM-CSF, TF-1 proliferation” value worked out at 0.0234 µM.
Still for that read-out and setting: the same measure for B17: 0.0399 µM.
Regarding B18, the “IC50 GM-CSF, TF-1 proliferation” value was found to be 0.06 µM and the “pStat5 IC50 GM-CSF, TF-1 bla reporter” value was 24 nM.
Regarding B19, the “IC50 GM-CSF, TF-1 proliferation” value worked out at 0.0364 µM.
Turning to B20, the “IC50 GM-CSF, TF-1 proliferation” value came out at 0.0998 µM.
On the same count and under the same terms, the same measure for B21: 0.184 µM.
In the case of B22, the “IC50 GM-CSF, TF-1 proliferation” value is above 1 µM.
For the molecule B23, the “IC50 GM-CSF, TF-1 proliferation” value came to 0.0481 µM.
With B24, the “IC50 GM-CSF, TF-1 proliferation” value came to 0.294 µM.
The same measure, in the same setting: the same measure for B25: 0.602 µM; for B26: above 1 µM; for B27: 0.0234 µM.
Take B28: the “IC50 GM-CSF, TF-1 proliferation” value was determined as 0.076 µM.
On the same count and under the same terms, the same measure for B29: 0.101 µM.
On the same count and under the same terms, the same measure for B30: 0.122 µM.
Same read-out and setting: the same measure for B31: 0.0312 µM.
As for B32, the “IC50 GM-CSF, TF-1 proliferation” value was 0.005 µM.
Still for that read-out and setting: the same measure for B33: 0.0793 µM.
